For four molecules, interaction score results are on record in paper PMC10397247.

One assay has as its target T1, 4H324-AA.
T1 chain: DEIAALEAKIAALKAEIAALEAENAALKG
Put plainly: two-hybrid library CCmax.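 Also: natural log of median RNA to DNA barcode read ratio; higher means stronger binding.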 The settings on record: mean of both orientations.

The next assay has as its target T2, 4H3449-AA.
T2 chain: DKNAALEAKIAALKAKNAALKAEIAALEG
The experiment in a line: two-hybrid library CCmax.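 Also: natural log of median RNA to DNA barcode read ratio; higher means stronger binding.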 The settings on record: mean of both orientations.

The next assay concerns the target T3, 4H3915-AA.
T3 chain: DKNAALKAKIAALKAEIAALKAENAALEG
Put plainly: two-hybrid library CCmax.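 Also: natural log of median RNA to DNA barcode read ratio; higher means stronger binding.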 The conditions noted are these: mean of both orientations.

The target of another assay is T4, 4H3629-AA.
T4 chain: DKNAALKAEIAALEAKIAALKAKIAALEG
The experiment in a line: two-hybrid library CCmax.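 Also: natural log of median RNA to DNA barcode read ratio; higher means stronger binding.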 The conditions noted are these: mean of both orientations.

In another assay the target is T5, 4H380-AA.
T5 chain: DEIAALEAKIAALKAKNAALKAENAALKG
Put plainly: two-hybrid library CCmax.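 Also: natural log of median RNA to DNA barcode read ratio; higher means stronger binding.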 The conditions noted are these: mean of both orientations.

Another assay addresses T6, 4H3974-AA.
T6 chain: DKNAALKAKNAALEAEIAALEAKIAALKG
Put plainly: two-hybrid library CCmax.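 Also: natural log of median RNA to DNA barcode read ratio; higher means stronger binding.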 The settings on record: mean of both orientations.

A further assay deals with T7, 4H2947-AA.
T7 chain: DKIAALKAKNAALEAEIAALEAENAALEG
Put plainly: two-hybrid library CCmax. The conditions noted are these: mean of both orientations.

The target in a further assay is T8, 4H3619-AA.
T8 chain: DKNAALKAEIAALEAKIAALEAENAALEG
The experiment in a line: two-hybrid library CCmax. The settings on record: mean of both orientations.

A further assay addresses T9, 4H2961-AA.
T9 chain: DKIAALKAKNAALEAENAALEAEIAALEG
The experiment in a line: two-hybrid library CCmax. The settings on record: mean of both orientations.

The target of another assay is T10, 4H341-AA.
T10 chain: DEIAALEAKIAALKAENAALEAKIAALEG
The experiment in a line: two-hybrid library CCmax. The conditions noted are these: mean of both orientations.

Another assay concerns the target T11, 4H3595-AA.
T11 chain: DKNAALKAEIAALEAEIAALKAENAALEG
Put plainly: two-hybrid library CCmax. The conditions noted are these: mean of both orientations.

Another assay has as its target T12, 4H446-AA.
T12 chain: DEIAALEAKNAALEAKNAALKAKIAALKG
Put plainly: two-hybrid library CCmax. The settings on record: mean of both orientations.

The target of the next assay is T13, 4H3969-AA.
T13 chain: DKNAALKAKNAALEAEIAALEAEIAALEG
Put plainly: two-hybrid library CCmax. The conditions noted are these: mean of both orientations.

A further assay has as its target T14, 4H3414-AA.
T14 chain: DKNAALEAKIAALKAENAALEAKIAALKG
Put plainly: two-hybrid library CCmax. The conditions noted are these: mean of both orientations.

Another assay has as its target T15, 4H483-AA.
T15 chain: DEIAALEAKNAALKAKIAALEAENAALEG
The experiment in a line: two-hybrid library CCmax. The conditions noted are these: mean of both orientations.

The next assay concerns the target T16, 4H432-AA.
T16 chain: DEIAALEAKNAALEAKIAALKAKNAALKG
The experiment in a line: two-hybrid library CCmax. The conditions noted are these: mean of both orientations.

Another assay addresses T17, 4H3939-AA.
T17 chain: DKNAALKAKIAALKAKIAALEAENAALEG
Put plainly: two-hybrid library CCmax. The settings on record: mean of both orientations.

Another assay addresses T18, 4H2903-AA.
T18 chain: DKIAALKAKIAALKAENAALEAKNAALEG
The experiment in a line: two-hybrid library CCmax.

In another assay the target is T19, 4H63-AA.
T19 chain: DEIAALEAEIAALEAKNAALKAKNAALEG
The experiment in a line: two-hybrid library CCmax. The settings on record: mean of both orientations.

For a further assay, the target named is T20, 4H3777-AA.
T20 chain: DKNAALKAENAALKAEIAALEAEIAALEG
Put plainly: two-hybrid library CCmax. The settings on record: mean of both orientations.

In another assay the target is T21, 4H3049-AA.
T21 chain: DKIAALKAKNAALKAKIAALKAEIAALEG
The experiment in a line: two-hybrid library CCmax. The settings on record: mean of both orientations.

The target in the next assay is T22, 4H3094-AA.
T22 chain: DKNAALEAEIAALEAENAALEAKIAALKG
Put plainly: two-hybrid library CCmax. The conditions noted are these: mean of both orientations.

For a further assay, the target named is T23, 4H3782-AA.
T23 chain: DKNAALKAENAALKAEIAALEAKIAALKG
The experiment in a line: two-hybrid library CCmax. The settings on record: mean of both orientations.

A further assay has as its target T24, 4H3129-AA.
T24 chain: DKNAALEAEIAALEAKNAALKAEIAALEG
Put plainly: two-hybrid library CCmax. The conditions noted are these: mean of both orientations.

A further assay has as its target T25, 4H464-AA.
T25 chain: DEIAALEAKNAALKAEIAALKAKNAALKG
Put plainly: two-hybrid library CCmax. The conditions noted are these: mean of both orientations.

In the next assay the target is T26, 4H584-bA.
T26 chain: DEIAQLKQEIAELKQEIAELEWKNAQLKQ
The experiment in a line: two-hybrid library CCNG1.

In a further assay the target is T27, 4H850-bA.
T27 chain: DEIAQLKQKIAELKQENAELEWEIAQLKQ
The experiment in a line: two-hybrid library CCNG1.

The target of a further assay is T28, 4H591-bN.
T28 chain: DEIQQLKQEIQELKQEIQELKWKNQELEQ
Put plainly: two-hybrid library CCNG1.

Another assay addresses T29, 4H619-bA.
T29 chain: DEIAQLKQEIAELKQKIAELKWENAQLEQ
Put plainly: two-hybrid library CCNG1.

Another assay addresses T30, 4H906-bA.
T30 chain: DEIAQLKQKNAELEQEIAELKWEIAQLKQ
The experiment in a line: two-hybrid library CCNG1.

Another assay deals with T31, 4H55-AA.
T31 chain: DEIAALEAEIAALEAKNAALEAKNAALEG
Put plainly: two-hybrid library CCmax.

Another assay deals with T32, 4H662-AA.
T32 chain: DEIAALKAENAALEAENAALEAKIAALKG
The experiment in a line: two-hybrid library CCmax. The settings on record: mean of both orientations.

For a further assay, the target named is T33, 4H3605-AA.
T33 chain: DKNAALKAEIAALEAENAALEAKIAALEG
The experiment in a line: two-hybrid library CCmax.

Another assay concerns the target T34, 4H3625-AA.
T34 chain: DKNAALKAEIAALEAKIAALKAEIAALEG
The experiment in a line: two-hybrid library CCmax. The conditions noted are these: mean of both orientations.

The target in a further assay is T35, 4H369-AA.
T35 chain: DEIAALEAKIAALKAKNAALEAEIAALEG
The experiment in a line: two-hybrid library CCmax. The settings on record: mean of both orientations.

Another assay addresses T36, 4H3922-AA.
T36 chain: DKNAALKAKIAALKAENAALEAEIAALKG
Put plainly: two-hybrid library CCmax. The conditions noted are these: mean of both orientations.

A further assay deals with T37, 4H4033-AA.
T37 chain: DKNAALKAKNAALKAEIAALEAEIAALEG
The experiment in a line: two-hybrid library CCmax. The settings on record: mean of both orientations.

For another assay, the target named is T38, 4H3664-AA.
T38 chain: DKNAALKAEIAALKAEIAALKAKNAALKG
Put plainly: two-hybrid library CCmax. The settings on record: mean of both orientations.

Another assay has as its target T39, 4H481-AA.
T39 chain: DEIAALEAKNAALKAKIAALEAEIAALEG
The experiment in a line: two-hybrid library CCmax. The settings on record: mean of both orientations.

For a further assay, the target named is T40, O9-bA.
T40 chain: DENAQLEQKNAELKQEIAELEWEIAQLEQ
The experiment in a line: two-hybrid library CCNG1. The settings on record: mean of both orientations.

Consider DKIAALKAKIAALKAENAALEAKNAALEG [4H2903-AA], for which the interaction score with 4H324-AA was -0.202; with 4H3449-AA, -1.8; with 4H3915-AA, -1.48; with 4H3629-AA it was -0.902; with 4H380-AA it was 0.283; with 4H3974-AA it was -0.747. Moreover, the interaction score with 4H2947-AA is -1.62; with 4H3619-AA, -0.237; with 4H2961-AA, -1.88; in the assay with 4H341-AA, -0.593; with 4H3595-AA, -0.655; with 4H446-AA it was -0.722. Further, the interaction score is -0.566 with 4H3969-AA; -1.72 in the assay with 4H3414-AA; -1.33 with 4H483-AA; -1.38 with 4H432-AA; -1.78 with 4H3939-AA; -1.28 with 4H2903-AA. The interaction score was 2.45 with 4H63-AA; -1.22 with 4H3777-AA; -1.81 with 4H3049-AA; -0.448 in the assay with 4H3094-AA; -1.31 in the assay with 4H3782-AA; -0.64 with 4H3129-AA. The same molecule registered an interaction score with 4H464-AA of -1.44.

DEIAQLKQEIAELKQEIAELEWKNAQLKQ [4H584-bA]: the interaction score was 0.598 with 4H584-bA; 0.521 with 4H850-bA; -0.664 in the assay with 4H591-bN; 1.1 with 4H619-bA; -0.288 with 4H906-bA.

Consider DKNAALKAEIAALEAENAALEAKIAALEG [4H3605-AA], for which the interaction score was -1.29 with 4H55-AA; -1.77 with 4H662-AA; -1.34 with 4H3605-AA; -0.874 in the assay with 4H3625-AA; 1.77 with 4H369-AA; -0.251 with 4H3922-AA. Also, the interaction score with 4H4033-AA was -1.31; in the assay with 4H3664-AA, -1.67; with 4H481-AA, 0.557.

As to DENAQLEQKNAELKQEIAELEWEIAQLEQ [O9-bA], in the assay with O9-bA, the interaction score was -0.959.
